Measured values published in patent publication US20030186284A1.

Target: proteoglycan-type receptor-type protein tyrosine phosphatase (PTP?), mouse (mouse) (UniProt B9EKR1)
Assay: cell-based or functional assay

Chain of UniProt B9EKR1 (B9EKR1 25-2312): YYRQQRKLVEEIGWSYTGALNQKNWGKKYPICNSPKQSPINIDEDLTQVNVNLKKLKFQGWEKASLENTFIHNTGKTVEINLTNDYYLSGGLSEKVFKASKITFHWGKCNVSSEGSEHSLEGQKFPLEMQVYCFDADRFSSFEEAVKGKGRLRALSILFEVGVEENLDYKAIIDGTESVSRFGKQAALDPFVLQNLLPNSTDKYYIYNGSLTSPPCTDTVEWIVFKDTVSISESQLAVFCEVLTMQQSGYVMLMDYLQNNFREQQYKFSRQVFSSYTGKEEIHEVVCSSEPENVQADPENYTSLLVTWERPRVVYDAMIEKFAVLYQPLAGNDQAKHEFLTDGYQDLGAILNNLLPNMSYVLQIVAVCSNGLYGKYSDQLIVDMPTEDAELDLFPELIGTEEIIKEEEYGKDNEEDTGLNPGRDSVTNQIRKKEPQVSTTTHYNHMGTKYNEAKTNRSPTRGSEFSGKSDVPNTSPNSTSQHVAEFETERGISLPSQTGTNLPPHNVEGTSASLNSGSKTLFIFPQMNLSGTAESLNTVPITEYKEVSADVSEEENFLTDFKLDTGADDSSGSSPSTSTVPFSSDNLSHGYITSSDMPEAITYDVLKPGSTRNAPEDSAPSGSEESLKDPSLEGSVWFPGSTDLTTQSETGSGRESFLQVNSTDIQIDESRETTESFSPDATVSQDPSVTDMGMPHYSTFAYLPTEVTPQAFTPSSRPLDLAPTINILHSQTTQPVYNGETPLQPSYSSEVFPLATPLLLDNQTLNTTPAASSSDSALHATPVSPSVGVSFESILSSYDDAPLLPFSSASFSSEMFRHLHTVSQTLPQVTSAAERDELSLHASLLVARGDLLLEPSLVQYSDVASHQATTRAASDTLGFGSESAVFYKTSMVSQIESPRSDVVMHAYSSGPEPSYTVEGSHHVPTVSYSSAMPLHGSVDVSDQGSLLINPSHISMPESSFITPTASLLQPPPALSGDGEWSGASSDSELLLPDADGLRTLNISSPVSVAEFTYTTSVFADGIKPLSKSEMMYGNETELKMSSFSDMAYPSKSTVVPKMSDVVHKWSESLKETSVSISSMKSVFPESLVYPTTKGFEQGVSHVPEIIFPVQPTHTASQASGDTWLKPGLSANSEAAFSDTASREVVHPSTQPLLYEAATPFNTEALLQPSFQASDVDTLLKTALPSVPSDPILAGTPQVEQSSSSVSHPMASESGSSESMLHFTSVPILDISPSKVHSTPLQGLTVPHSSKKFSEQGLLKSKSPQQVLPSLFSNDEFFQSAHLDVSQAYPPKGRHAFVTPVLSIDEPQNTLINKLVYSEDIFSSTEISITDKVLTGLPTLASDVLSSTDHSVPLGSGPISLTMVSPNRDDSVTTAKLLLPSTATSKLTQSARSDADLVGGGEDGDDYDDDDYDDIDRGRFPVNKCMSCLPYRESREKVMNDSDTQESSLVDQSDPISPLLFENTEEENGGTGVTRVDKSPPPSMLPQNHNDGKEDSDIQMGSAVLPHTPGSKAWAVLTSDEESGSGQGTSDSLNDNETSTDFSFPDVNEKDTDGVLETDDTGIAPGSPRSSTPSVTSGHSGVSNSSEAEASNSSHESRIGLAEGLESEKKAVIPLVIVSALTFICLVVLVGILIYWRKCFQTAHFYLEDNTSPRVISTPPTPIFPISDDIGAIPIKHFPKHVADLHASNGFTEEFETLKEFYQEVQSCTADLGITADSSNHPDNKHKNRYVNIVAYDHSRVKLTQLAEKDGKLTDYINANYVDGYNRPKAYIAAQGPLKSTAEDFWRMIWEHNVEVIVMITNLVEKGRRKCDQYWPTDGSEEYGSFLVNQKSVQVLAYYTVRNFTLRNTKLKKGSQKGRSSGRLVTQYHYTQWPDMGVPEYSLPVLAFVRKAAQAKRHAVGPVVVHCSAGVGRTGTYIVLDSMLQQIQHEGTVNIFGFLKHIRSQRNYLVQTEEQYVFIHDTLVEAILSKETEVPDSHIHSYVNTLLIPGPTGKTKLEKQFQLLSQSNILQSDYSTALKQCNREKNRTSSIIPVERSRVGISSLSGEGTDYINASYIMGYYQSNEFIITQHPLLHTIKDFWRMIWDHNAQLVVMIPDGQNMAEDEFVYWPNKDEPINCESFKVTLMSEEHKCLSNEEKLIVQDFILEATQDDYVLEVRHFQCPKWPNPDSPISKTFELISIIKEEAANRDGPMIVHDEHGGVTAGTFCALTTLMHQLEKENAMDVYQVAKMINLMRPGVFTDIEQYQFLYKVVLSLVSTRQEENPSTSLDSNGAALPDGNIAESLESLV

Work on “VacA, a toxin of Helicobacter pylori (ligand)” yielded an epithelial damage score (EDS), wild-type (PTP?+/+) mice, VacA 0.125 mg/kg (score (scale 1-4)) of 1.8, an epithelial damage score (EDS), wild-type (PTP?+/+) mice, VacA 0.250 mg/kg (score (scale 1-4)) of 2.2 and an inflammation score (IS), wild-type (PTP?+/+) mice, VacA 0.125 mg/kg (score (scale 1-4)) of 1.4. It also gave an inflammation score (IS), wild-type (PTP?+/+) mice, VacA 0.250 mg/kg (score (scale 1-4)) of 1.4.
